The text below walks through data of the DeepSol protein solubility set.

This series is described as follows: soluble on expression in E. coli; label from the status in PepcDB or PDB records.
As to “MNIREPPDVVIFCELIYGAAITCLKKFFLRDVFKIFITSHKANIDLMDVVIKSFTDSTNSGKLSKAWAHAQNCHTNFYELKNMKKKLKQNILKSVSEMNNIIKKADIDMINNNLKPFLKQMEKLPTKKTVTIGNESFEYNKTASWYN”, the “soluble on expression in E. coli” value is “not soluble”.
Regarding “MSSHPLSISSLSPSYSHRPPGAEQHTVVAGRTSKSAREQCVQGQMVIMQPIRAFVDQHFRAFCQSVELYTISYFQMVPMNPELMHYPNQPHMMPGYPMINAYQQSYLQNPAQWTPEMLLCMQMQMQQMVPGTATNSTYMPPQSKNTVTPNATSPLSQISDRDSGNDTISPPLTSQNRYVFLLRGKKKSCAMFECLGGLYFMVQFVSRNT”, the “soluble on expression in E. coli” value was “not soluble”.
Under “MSLTHAILFDLDGTLVDHASAARAALHAWSPTVGVDTDVERWIELDKWGFARFERGETTHLGQRRDRIRAYLNRELDDATCDDIYSGYLKAYEQNWTAYPDAKGVLDRAVATGAPVGILTNGAAPMQQDKLDRTGLGLPELVMLAASTLDSAKPRPEMYARALTHLGARTATIIGDDWTNDVAAPRELGWNALYLDRSGTDPRADIHSLDELFHEGHHHHHH” stands “soluble”; under “MKRIAFVFSTAPHGTAAGREGLDALLATSALTDDLAVFFIADGVFQLLPGQKPDAVLARDYIATFKLLGLYDIEQCWVCAASLRERGLDPQTPFVVEATPLEADALRRELANYDVILRF”, “soluble”; under “MGSDKIHHHHHHMKKLIDYLKANKITEVECVISDMTGIARGKIAPVDKFIDEKGMRLPESVLLQTVTGDYVDDDLYDSLLDKADIDFVCVPDENAVFMLPWTVEATAQVIHDTFDKMGNPIELSPRNLLKKVLKLYEDKGWKPVIAPEMEFYLTHRNSDPDMPLIPPVGRSGRKESGRQSFSIDAANEYDPLFEDMYDWCEAQGLDIDTLIHEEGTAQMEINFSHGDALSLADQVFVFKRTLREAALKHDVCATFMAKPVTDEPGSAMHIHQSVVDIKTGKNIFTNEDGTKSAKFLCYIGGLQKYIPELLPLMAPNVNSFRRFLPGTSAPVNLEWGDENRTCGLRIPESSPQNRRIENRIAGADANSYLAIAATLLCGYMGMVEDVKPSTPVQGRANENRQGISLPLTLEEALAVMSESSAVREYLGDTFTSGYIAVKQADLENFRRVISSWEREFLLLTV”, “not soluble”.
In the case of “SQEIVAGELERCFLAMPESVLPIVTMEERNDLCRRAGHLSGFTHTASLESSLGGTVTFLLNRNFIRIQTSTVGEVFMRILPFSDSSSVICVVTTVLHPVADSRIDFYTTEWKPLKTDRFWQQPRIEDFFLPHTDRQSYAYQAIYASLTPSYMQVSLSEESDTLSIRQTVTETLAEEEKPLAAIFLSPEPLVYRWQSGRFVRQVR”, the “soluble on expression in E. coli” value was “soluble”.
Under “MPMKEFPGLFLWKMWSLDKKKENMLKTHDPGISRLEPVTKTKPWREPLWERNWQGQHLDSRGYLAGPGREDGRNPLKLFVRATLQESLQFHRPDFISHIWERIKRLKLIVQERKLQSMLKSERDALFDIDRERQGHQNRMRPLPKRVFLAVQKNKPISKKEMIQRSKRTHAGGTVAQRLPGALWVKERLPGKGEKHPGIPVTSGSSTQTM” stands “not soluble”; under “MAHHHHHHMTDVVEAPRPATVAEAFANTAKALEQFNIERIRVEGLSCKSSITHCRKHDKNNMEKEEDVRTLTEQAFMREFVFQSRPCVIVGALEDWPAMQRWRDDRYLFDLDGHLSRVRRETDDAAAPSSEGTAATGDVAVVPKNNDHDSSDDNTHPREREEEKDGLKRVTVALTPNGRADAVTYVTYQGAREEGRENDVDGKKDNVEEHFIKTEKLFMAAAEIRATLPELYHLLRENPLYPPVRPVFVDLRRPAPVVAYAQMQNNCLEVEYQHLHGDIPPELDRFGERVFGEPHEAANVWFGTPASVSSMHQDWVENLYAVVRGVKEFILLPPWEGVFVPKPELPSAAFSVQRQDGVNGYVFSGTPVHDGLTIPWMDVEFTPAALEDVSLMPTNMQERLHPLVVYVQPGEVLYLPAMWLHRVAQHADDTDRLAREKQLTSSLQSAQDPPLPLIAAVNYWYDMSFTNPAVVMLREFGLLL”, “soluble”.
“KIGERMLGTDPVTGESVVAKMGRYGAMVQKGRTDKENGIKAQFASLQPGQSIESITLEEALELFLLPKKLGQYEDADVMVAVGRFGPYIKHAGKFVGLPKDTEPLSVSLDDAIKYIADKREKEEKSLIKGFAEDPEMEIRTGRFGVYIKYKGKNYKVPKTVEDPEKLTLEECLKYVEEGETKPAKGKKKAPAKKTSAKKTAKK”: the “soluble on expression in E. coli” value is recorded as “not soluble”.
Regarding “MSVASLFEKFFLSASFIDKAPRTQKDYLGYKKDLLIAFGKMDINKVEPKHVRMFMDKKAVKSGISQANRHKSALQSIFSWAYERGKIKVNPCVGVKKFTEKLEHHHHHH”, the “soluble on expression in E. coli” value is listed as “not soluble”.
“MGHHHHHHSHMAQSINITELNLPQLEMLKNQLDQEVEFLSTSIAQLKVVQTKYVEAKDCLNVLNKSNEGKELLVPLTSSMYVPGKLHDVEHVLIDVGTGYYVEKTAEDAKDFFKRKIDFLTKQMEKIQPALQEKHAMKQAVMEMMSQKIQQLTALGAAQATAKA”: the “soluble on expression in E. coli” value is “not soluble”.
In the case of “MSILPSNTPLYSHPLPQIEQWLKDQGCQQDENELHCWRLQKPSWQAEIWLDIEQITVRYIQAGENGQNIQRSFKYSLSRQDIEQAIFCGP”, the “soluble on expression in E. coli” value was “not soluble”.
Consider “MEYRITGKGVEISEAIKNYLEKRLDKIDRVIYDDDLVSFNVRIEKDGKNQYVVKFNMNLKGNIINVEERHPDIYTAIDFASDALEKQVKRLKERLKNHPHRSSALVETPLEEPGEFSPSDKVSSVKRVSLLNLDLDEAVMQMDELNHRFLVFRNVNTGEINLLYRDENGDIHLIEMAE”, for which the “soluble on expression in E. coli” value is reported as “not soluble”.
In the case of “MALTEERVLEALRTVMDPELGKDLVSLGMVDEVRVEGGRVDLLVNLTTPACPLKGQIEADIRRALAPLGAEEVRVRFGGGVRPPERYALPGVKHVVAVASGKGGVGKSTVAANLALALSREGAKVGLLDADLYGPSQAKMFGLEGMRLKVDQDRRILPLEAHGIKVLSIANIVPPGQALAWRGPILHGTLKQFLQDVNWGELDYLVVDLPPGTGDVQLSLSQLTQVSGGVIVTTPQEVALIDAERAADMFRKLQVPVLGVLENMSAFLCPHCGKPTPIFGEGGGRRLAERLKTRFLGEIPLTLALRESGDRGVPVLAQDPEGLEAQAFLKAARELAAALSVQTFLPLPMA”, the “soluble on expression in E. coli” value was “soluble”.
As for “MLTESTDKKAVNQVIHYVYEGGGEAATDHNATVDFSRTITTDRVTNDKTYGDWTADNGDSFASVTSPVIDGYTADQLKVSEMTGITADTEDISVTVTYTRNQGTIDITYIDQTTGQTLSKLEHHHHHH”, the “soluble on expression in E. coli” value is reported as “not soluble”.
“GSASKICQFKLVLLGESAVGKSSLVLRFVKGQFHEYQESTIGAAFLTQSVCLDDTTVKFEIWDTAGQERYHSLAPMYYRGAQAAIVVYDITNQETFARAKTWVKELQRQASPSIVIALAGNKADLANKRMVEYEEAQAYADDNSLLFMETSAKTAMNVNDLFLAIAKKLPKSEPQNLGG”: the “soluble on expression in E. coli” value is “soluble”.
With “MGSDKIHHHHHHMLNEMEKTVLQMIMAGSDISRVDISRALGISKPVVSKAVNRLIELGFVKEAGRKESSSKGGRKPVLLSFVPESRYVIGVDIGGTKIDAVLTDLVGNVLNKEHILLPSNLDKRKLLELIKKVIHPFLVYERILGIGIGIPGTVDEDHLVKRIPAFDVTDWDLKEELEKTFGYPVFVENNANLDAFAEAKIGAGRGFRCVLLISVGWGIGSGIVYDGKIFRGARGKAGEFGHIVTDWSKEKEIVLEKGFGHLEEWFSGFSMSKRFGKSPEWVFEKRHNEIKKNLEHFGVAVANAIVLFDPDVVIIKGGIGLHQFEKISAVVRSVVSKIVPEDILKDVEIRKGEIEEYGVAIGGALFVIENILGLKGGGKYEGCQASREVGSKAGV”, the “soluble on expression in E. coli” value was “not soluble”.
Regarding “MSLEEQLAQNDQPSEKLVRLYGAWAEGGAGVLVTGNVMVAESGKGSINDVLISDDRALEMLKKWAKARTQNDTLLIMQINHAGKQSPAVVNKTPLAPSAVPLVGMNGFINPPRELSADEINGLIQQFVQTAKIAEQAGFSGVQIYAVHGYLISQFLSPHHNRRQDQWGGSLENRMRFLLETYTAIRAAAGKDFLVGVKLNSADFQKGGFDESESVQVVQKLSEMGIDFIEVSGGNYESPQMLAAKDSTRKREAFFIDYAEKARAASQAPLIITGGFRSQTAMEDALSSGHLDLVGIARPFALVPDLANKMQNRTYQTVQADRIQTGVAFVDKKAGAMLEMNWYMTQMDLIGQGKQSNPKIVGVESIAENFAGKEGHHHHHH”, the “soluble on expression in E. coli” value is given as “not soluble”.
